In patent publication US20070185028A1, “Compositions and methods for treatment of protein misfolding and protein aggregation diseases” (priority 2004, published 2007):

What was measured:
[1] = target: beta amyloid (Homo sapiens, UniProt P05067); test: αB crystallin protein pin array, binding of beta amyloid; settings: immobilized 8-mer peptide; absorption at 450 nm
Source text: αB Crystallin peptides that bind the target protein beta-amyloid were identified by screening an αB crystallin protein pin array, which provides a systematic method for evaluating interactions between peptides corresponding to residues 1-175 of human αB crystallin and selected target proteins in a parallel and simultaneous manner.
Peptides were synthesized on derivatized polyethylene pins arranged in a microtiter plate format. Each peptide was 8 amino acids in length and consecutive peptides were offset by 2 amino acids. All peptides were covalently bonded to the surface plastic pins. The first immobilized peptide was 1MDIAIHHP8 and the last peptide was 168PAVTAAPK175 for the human αB crystallin.
After synthesis, the pins were pre-coated at room temperature with 2% Bovine Serum Albumin (BSA), 0.1% Tween-20 and 0.1% Sodium azide in 10 mM phosphate buffered saline pH 7.2 (PBS) for 1 hr, and washed three times for 10 mins each with 10 mM PBS. To screen for binding to the peptides, fixed concentrations of the target protein beta amyloid was dissolved in 10 mM PBS, containing 0.05% Tween-20, added to each well and incubated for 1 hr at room temperature. The pin array was washed three times for 10 mins each with 10 mM PBS, containing 0.05% Tween-20. Monoclonal or polyclonal primary antibodies for the target protein beta amyloid was diluted into PBS buffer, added to each well and incubated for 1 hr at room temperature. Subsequently, the pin array was washed three times for 10 mins each with 10 mM PBS containing 0.05% Tween-20. Anti-rabbit horse-radish peroxidase conjugate secondary antibodies was diluted into PBS buffer, added to each well and incubated for 1 hr at room temperature. The pin array was washed three times for 10 mins each with 10 mM PBS containing 0.05% Tween-20. A chromogenic substrate of horse-radish peroxidase 3,3′,5,5′-Tetramethylbenzidine (TMB) (Pharmingen, San Diego, Calif.) which is colorless was added, and the reaction was carried out for 45 min.
The reaction was stopped by adding 6N sulfuric acid, which changes the color from blue to yellow. The absorption at 450 nm was measured by an ELISA reader (BioTek, Winooski, Vt.).
The pin array was regenerated by sonication in a water bath (VWR Aquasonic, West Chester, Pa.) with 100 mM PBS, containing 1% Sodium dodecyl sulfate (SDS) and 0.1% 2-Mercaptoethanol@60° C. for 10 mins. Next, the pin array was rinsed three times in deionized water, preheated to 60° C. for 30 secs each time, and shaken in water preheated at 60° C. for 30 min. The pin array was then washed with methanol at 60° C. for 15 secs and air-dried and stored @−20° C. for future use. Each target protein was assayed 2-5 times against the human αB crystallin protein pin array peptides to verify the reproducibility of the results. Peptides numbered 5, 7, 8, 9, 13, 19, 22, 23, 24, 27, 35, 38, 45, 51, 52, 56, 57, 61, 66, 71, 72, and 79 in Table 2 reproducibly tested positive in the protein pin assay.

[2] = target: T1, human γD crystallin (Homo sapiens, UniProt P07320); test: αB crystallin protein pin array with γD crystallin; assay type: binding; settings: unheated γD crystallin; similar maxima pre-heated 45° C.
T1 construct: made in house
T1 sequence (P07320 1-174): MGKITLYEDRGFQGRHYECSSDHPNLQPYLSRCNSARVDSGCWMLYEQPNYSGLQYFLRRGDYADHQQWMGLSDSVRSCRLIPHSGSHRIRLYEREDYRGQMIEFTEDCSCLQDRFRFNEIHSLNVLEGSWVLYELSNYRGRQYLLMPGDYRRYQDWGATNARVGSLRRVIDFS
Source text: (§1) Synthesis of Pins, binding and detection of peptides binding to ligand proteins. The αB crystallin protein pin array was used to measure the interaction between peptides and chaperone target proteins including bovine βH crystallin, human γD crystallin, equine alcohol dehydrogenase (ADH) and porcine citrate synthase (CS) as described (FIG. 12). Ghosh and Clark, Protein Sci 14: 684-95, 2005.
(§2) Refer to the methods section for detailed protocols. The absorbance corresponding to the blue coloration in each well was measured at λ=450 nm and plotted against the amino acid sequence of the corresponding peptide in that well (FIGS. 13 and 14). Wells containing peptides that have strong interactions with target proteins are dark blue and wells containing peptides that have weak or no interaction with target proteins are light blue or clear.
(§3) The purity of the target proteins used in the pin array assays, bovine βH crystallin, human γD crystallin, equine alcohol dehydrogenase (ADH) and porcine citrate synthase (CS) were determined to be >90% by SDS-PAGE. In addition, primary antibodies for each target protein were specific to that target protein and consequently contaminating proteins that may bind to the peptides will not be detected. Eighty-four sequential and overlapping peptide fragments corresponding to residues 1-175 of human αB crystallin were synthesized employing a simultaneous peptide synthesis strategy developed by Geysen, called Multipin Peptide Synthesis (Mimotopes, San Diego, Calif.). Geysen, Southeast Asian J Trop Med Public Health 21: 523-33, 1990; Chin et al., J Org Chem 62: 538-539, 1997. Peptides were immobilized on derivatized polyethylene pins arranged in a microtiter ELISA plate format. Each peptide was eight amino acids in length and consecutive peptides were offset by two amino acids. All peptides were bound covalently to the surface of the plastic pins. The first peptide was 1MDIAIHHP8 and the last peptide was 168PAVTAAPK175 for human αB crystallin.
(§4) Ghosh and Clark, Protein Sci 14: 684-95, 2005. […] The intensity of the blue color in the wells was measured at 450 nm using an ELISA plate-reader (BioTek, Winooski, Vt.). The intensity of the blue color (plotted on the X-axis) was a measure of the interaction between αB crystallin peptides (plotted on the Y-axis) and target proteins. To measure the effect of temperature on the interactions between interactive peptides and the target proteins, the target proteins were heated in a water-bath at 45° C. for fifteen minutes prior to use. Pin arrays are unable to differentiate between monomers, dimers or oligomers of target proteins that exist in solution. Instead, pin arrays are very sensitive detectors of interactions between individual peptides and the entire population (monomers, dimers or oligomers) of specific target proteins that may exist in solution under specific conditions. Each target protein was assayed two to five times. A single pin array was used for all experiments and no change in interactions was observed after more than thirty repetitions. The last three peptides of the protein pin array, 163REEKPAVT170, 165EKPAVTAA172, 167PAVTAAPK174, correspond to the epitope (163REEKPAVTAAPKK175) recognized by the primary antibody for human αB crystallin. A positive reaction is observed for these three peptides in the absence of human αB crystallin as the ligand due to direct binding of the anti-human αB crystallin antibody to these three peptides. The loss of efficiency for the pin array was measured using this assay. The loss of efficiency for the pin array was determined to be <5% by after more than 30 assays.
When βH crystallin was replaced with γD crystallin, a native protein constituent of lens cytoplasm from the same gene family as the β crystallins, as the ligand in the pin array, twelve interactive sequences were identified (FIG. 14: striped bars). […]

[3] = as provided by manufacturer (Mimotopes); cited from earlier work
[4] = target: T2, equine alcohol dehydrogenase (ADH) (Equus caballus, UniProt P00327); test: αB crystallin protein pin array with alcohol dehydrogenase; assay type: binding; settings: ADH as ligand in the pin array
T2 construct: purchased Sigma-Aldrich, MO 05646
T2 sequence (P00327 whole entry): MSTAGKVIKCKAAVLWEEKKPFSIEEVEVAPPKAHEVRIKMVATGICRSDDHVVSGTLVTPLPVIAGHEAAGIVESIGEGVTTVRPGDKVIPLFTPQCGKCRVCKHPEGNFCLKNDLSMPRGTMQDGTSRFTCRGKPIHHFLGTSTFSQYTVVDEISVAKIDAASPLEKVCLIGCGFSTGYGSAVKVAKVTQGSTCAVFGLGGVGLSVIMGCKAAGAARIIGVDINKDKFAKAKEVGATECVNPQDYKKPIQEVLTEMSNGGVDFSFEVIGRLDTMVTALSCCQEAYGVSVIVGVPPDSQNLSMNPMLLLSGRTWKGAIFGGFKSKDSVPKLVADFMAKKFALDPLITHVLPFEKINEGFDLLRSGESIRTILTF
Source text: as §1, §2, §3, §4
The pattern of absorbance at k=450 nm when αB crystallin peptides were assayed with unheated and pre-heated ADH was similar to the absorbance pattern obtained with unheated and pre-heated βH/γD crystallin (FIG. 17). […]

[5] = target: T3, porcine citrate synthase (CS) (Sus scrofa, UniProt P00889); test: αB crystallin protein pin array with citrate synthase; assay type: binding; settings: CS as target protein in the pin array
T3 construct: purchased Roche Diagnostics, IN 103 381
T3 sequence (P00889 28-464): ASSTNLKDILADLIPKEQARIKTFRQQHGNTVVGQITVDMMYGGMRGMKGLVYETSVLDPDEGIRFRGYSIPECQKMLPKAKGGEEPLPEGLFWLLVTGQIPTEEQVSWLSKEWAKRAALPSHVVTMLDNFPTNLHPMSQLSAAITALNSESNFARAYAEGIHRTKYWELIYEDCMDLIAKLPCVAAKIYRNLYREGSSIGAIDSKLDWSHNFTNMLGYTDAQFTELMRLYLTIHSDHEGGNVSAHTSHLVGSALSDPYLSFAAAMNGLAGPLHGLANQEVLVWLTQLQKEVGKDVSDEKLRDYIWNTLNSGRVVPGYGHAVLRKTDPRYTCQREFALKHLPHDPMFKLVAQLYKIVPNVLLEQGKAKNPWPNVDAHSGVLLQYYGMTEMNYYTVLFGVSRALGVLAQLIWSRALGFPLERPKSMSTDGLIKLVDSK
Source text: as §1, §2, §3, §4
The pattern of absorbance at λ=450 nm when αB crystallin peptides were assayed with unheated and pre-heated CS was similar to the absorbance pattern obtained with unheated and pre-heated βH/γD crystallin and ADH (FIG. 18). […]

[6] = tested on: bovine βH crystallin; test: αB crystallin protein pin array with βH crystallin; assay type: binding; settings: unheated βH crystallin, 23° C.; similar maxima pre-heated 45° C.
Source text: as §1, §2, §3, §4
Protein pin arrays enabled the identification of interactive sequences necessary for the chaperone activity of human αB crystallin. Interactions between immobilized 8-mer human αB crystallin peptides and unheated and pre-heated βH crystallin, a natural protein constitute of lens cells, were measured as absorbances at λ=450 nm at 23° C. […]

| Sequence | binding of beta amyloid in the protein pin assay [1] | absorbance at 450 nm, interaction with γD crystallin [2] | Hydrophobicity [3] | absorbance at 450 nm, interaction with ADH [4] | absorbance at 450 nm, interaction with CS [5] | absorbance at 450 nm, interaction with βH crystallin [6] |
| --- | --- | --- | --- | --- | --- | --- |
| DQFFGEHL [Peptide 13] | positive | maximum absorbances | 0.47 |  |  |  |
| EFHRKYRI [Peptide 59] |  | maximum absorbances | 0.13 |  |  |  |
| FFGEHLLE [Peptide 14] |  |  | 0.73 | Maximum absorbances |  |  |
| FISREFHR [Peptide 57] | positive |  | 0.35 |  | absorbance maxima | Maximum absorbances |
| FPFHSPSR [Peptide 8] | positive |  | 0.51 |  | absorbance maxima |  |
| FYLRPPSF [Peptide 24] | positive | maximum absorbances | 0.83 |  | absorbance maxima | Maximum absorbances |
| GVLTVNGP [Peptide 71] | positive | maximum absorbances | 0.57 | Maximum absorbances |  | Maximum absorbances |
| HGFISREF [Peptide 56] | positive | maximum absorbances | 0.48 |  |  |  |
| IAIHHPWI [Peptide 2] |  | maximum absorbances | 1.12 |  |  |  |
| LFPTSTSL [Peptide 19] | positive |  | 0.79 | Maximum absorbances |  |  |
| LRAPSWFD [Peptide 28] |  |  | 0.62 |  | absorbance maxima |  |
| LRPPSFLR [Peptide 25] |  |  | 0.57 | Maximum absorbances |  |  |
| LTVNGPRK [Peptide 72] | positive |  | 0.16 |  | absorbance maxima |  |
| PFFPFHSP [Peptide 7] | positive | maximum absorbances | 0.95 | Maximum absorbances |  |  |
| RLEKDRFS [Peptide 35] | positive |  | −0.12 | Maximum absorbances |  | Maximum absorbances |
| RTIPITRE [Peptide 79] | positive |  | 0.27 | Maximum absorbances | absorbance maxima | Maximum absorbances |
| SFLRAPSW [Peptide 27] | positive | maximum absorbances | 0.71 |  |  |  |
| SREFHRKY [Peptide 58] |  |  | −0.1 | Maximum absorbances |  |  |
